T1: B42-RIP110 (mouse, UniProt Q5U5Q9 20-727)
T1 construct: Clone from a mouse liver cDNA library fused to B42; also called B42-110; B42 fusion 110
T1 sequence: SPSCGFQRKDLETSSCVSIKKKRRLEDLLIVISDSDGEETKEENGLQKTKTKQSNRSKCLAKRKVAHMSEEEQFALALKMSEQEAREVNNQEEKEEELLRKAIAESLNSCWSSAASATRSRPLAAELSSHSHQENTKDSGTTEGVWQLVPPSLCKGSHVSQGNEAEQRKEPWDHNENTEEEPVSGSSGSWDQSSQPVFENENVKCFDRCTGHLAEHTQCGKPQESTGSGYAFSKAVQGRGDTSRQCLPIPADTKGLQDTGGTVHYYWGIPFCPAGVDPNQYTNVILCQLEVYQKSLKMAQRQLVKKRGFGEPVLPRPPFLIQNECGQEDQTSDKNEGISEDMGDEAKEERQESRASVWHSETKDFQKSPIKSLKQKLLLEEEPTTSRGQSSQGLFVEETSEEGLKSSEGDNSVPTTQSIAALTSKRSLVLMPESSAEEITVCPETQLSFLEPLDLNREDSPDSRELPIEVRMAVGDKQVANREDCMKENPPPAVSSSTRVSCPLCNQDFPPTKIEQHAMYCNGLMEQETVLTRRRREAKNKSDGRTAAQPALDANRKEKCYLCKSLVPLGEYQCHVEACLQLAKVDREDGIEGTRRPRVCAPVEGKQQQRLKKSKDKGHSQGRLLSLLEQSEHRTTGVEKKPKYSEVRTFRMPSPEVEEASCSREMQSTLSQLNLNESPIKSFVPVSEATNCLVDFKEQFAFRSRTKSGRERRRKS

T2: LexA-TR (bacterial; rat, UniProt P0A7C2 1-202; P18113 170-461, limits assumed)
T2 construct: also called Lex fusion TR
T2 sequence (looked up): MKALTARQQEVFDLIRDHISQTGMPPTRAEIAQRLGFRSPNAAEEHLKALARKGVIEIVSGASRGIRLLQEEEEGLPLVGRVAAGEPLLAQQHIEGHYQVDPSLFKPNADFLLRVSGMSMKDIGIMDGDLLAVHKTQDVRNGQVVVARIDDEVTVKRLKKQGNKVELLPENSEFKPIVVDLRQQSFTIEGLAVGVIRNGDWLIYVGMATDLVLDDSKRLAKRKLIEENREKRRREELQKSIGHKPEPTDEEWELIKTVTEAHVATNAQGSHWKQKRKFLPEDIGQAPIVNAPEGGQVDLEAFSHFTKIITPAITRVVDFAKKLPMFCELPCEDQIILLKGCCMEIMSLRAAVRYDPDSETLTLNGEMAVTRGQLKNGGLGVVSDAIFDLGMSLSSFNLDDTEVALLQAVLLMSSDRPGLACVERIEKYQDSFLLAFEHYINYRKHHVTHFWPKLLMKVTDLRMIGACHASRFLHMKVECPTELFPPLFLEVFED

B1: LexA-RXR (other, bacterial;human, UniProt P0A7C2 1-202, looked up)
chain: MKALTARQQEVFDLIRDHISQTGMPPTRAEIAQRLGFRSPNAAEEHLKALARKGVIEIVSGASRGIRLLQEEEEGLPLVGRVAAGEPLLAQQHIEGHYQVDPSLFKPNADFLLRVSGMSMKDIGIMDGDLLAVHKTQDVRNGQVVVARIDDEVTVKRLKKQGNKVELLPENSEFKPIVVDLRQQSFTIEGLAVGVIRNGDWLLAMGMKREAVQEERQRGKDRNENEVESTSSANEDMPVERILEAELAVEPKTETYVEANMGLNPSSPNDPVTNICQAADKQLFTLVEWAKRIPHFSELPLDDQVILLRAGWNELLIASFSHRSIAVKDGILLATGLHVHRNSAHSAGVGAIFDRVLTELVSKMRDMQMDKTELGCLRAIVLFNPDSKGLSNPAEVEALREKVYASLEAYCKHKYPEQPGRFAKLLLRLPALRSIGLKCLEHLFFFKLIGDTPIDTFLMEMLEAPHQMT
notes: also called Lex fusion RXR
B2: B42-PPAR clone starting at amino acid 91 (other, mouse, UniProt P23204 91-468, looked up, not shown: large carriers)
chain: DESPGSALNIECRICGDKASGYHYGVHACEGCKGFFRRTIRLKLVYDKCDRSCKIQKKNRNKCQYCRFHKCLSVGMSHNAIRFGRMPRSEKAKLKAEILTCEHDLKDSETADLKSLGKRIHEAYLKNFNMNKVKARVILAGKTSNNPPFVIHDMETLCMAEKTLVAKMVANGVEDKEAEVRFFHCCQCMSVETVTELTEFAKAIPGFANLDLNDQVTLLKYGVYEAIFTMLSSLMNKDGMLIAYGNGFITREFLKNLRKPFCDIMEPKFDFAMKFNALELDDSDISLFVAAIICCGDRPGLLNIGYIEKLQEGIVHVLKLHLQSNHPDDTFLFPKLLQKMVDLRQLVTEHAQLVQVIKKTESDAALHPLLQEIYRDMY
notes: range 91-C-terminus; Only the start is stated; also called PPAR (four clones)
B3: B42-PPAR (plasmid isolated from the screening, as used in Table 1) (other, mouse, UniProt P23204 91-468, looked up, not shown: large carriers)
chain: B2 chain
notes: 'For B42-PPAR, the plasmid isolated from the screening was used'; also called B42 fusion PPAR
B4: B42-PPAR clone starting at amino acid 84 (other, mouse, UniProt P23204 84-468, looked up, not shown: large carriers)
chain: PVIPASTDESPGSALNIECRICGDKASGYHYGVHACEGCKGFFRRTIRLKLVYDKCDRSCKIQKKNRNKCQYCRFHKCLSVGMSHNAIRFGRMPRSEKAKLKAEILTCEHDLKDSETADLKSLGKRIHEAYLKNFNMNKVKARVILAGKTSNNPPFVIHDMETLCMAEKTLVAKMVANGVEDKEAEVRFFHCCQCMSVETVTELTEFAKAIPGFANLDLNDQVTLLKYGVYEAIFTMLSSLMNKDGMLIAYGNGFITREFLKNLRKPFCDIMEPKFDFAMKFNALELDDSDISLFVAAIICCGDRPGLLNIGYIEKLQEGIVHVLKLHLQSNHPDDTFLFPKLLQKMVDLRQLVTEHAQLVQVIKKTESDAALHPLLQEIYRDMY
notes: range 84-C-terminus; Only the start is stated; also called PPAR (three clones)
B5: B42-RIP13 (other, not shown: large carriers)
chain: DALAALVDAAASAPQMDVSKTKESKHEAARLEENLRSRSAAVSEQQQLEQKNLEVEKRSVQCVCTSSALPSGKAQPHASVVYSEAGKDKGPPPKSRYEEELRTRGKTTITAANFIDVTITRQIASDKDARERGSQSSDSSSSLSSHRYETASDAIEVISPASSPAPPQEKPQAYQPDMVKANQAENESTRQYEGPLHHYRSQQESPSPQQQPPLPPSSQSEGMGQVPRTHRLITLADHICQIITQDFARNQVPSQPSTSTFQTSPSALSSTPVRTKTSSRYSPESQSQTVLHPRPGPRVSPENLVDKSRGSRPGKSPERSHIPSEPYEPISPPQGPAVHEKQDSMLLLSQRGVDPAEQRSDSRSPGSISYLPSFFTKLESTSPMVKSKKQEIFRKLNSSGGGDSDMAAAQPGTEIFNLPAVTTSGAVSSRSHSFADPASNLGLEDIIRKALMGSFDDKVEDHGVVMSHPVGIMPGSASTSVVTSSEARRDEGEPSPHAGVCKPKLINKSNSRKSKSPIPGQSYLGTERPSSVSSVHSEGDYHRQTPGWAWEDRPSSTGSTQFPYNPLTIRMLSSTPPTQIACAPSAITQAAPHQQNRIWEREPAPLLSAQYETLSDSDD

How the values were obtained:
B42-RIP13 = target: B5; assay: yeast interaction trap, X-gal plate, with 9-cis-RA; B = blue (strong interaction)
Method: (§1) Interactions of the RIP clones with other superfamily members, including RAR, TR, the glucocorticoid receptor (GR), and MB67, an orphan isolated in this lab (Baes et al., Mol. Cell. Biol. 14:1544–1552, 1994) were also tested using a series of appropriate LexA fusions. In particular, the experiments shown in Table 1 were carried out as follows. Yeast transformants containing a lacZ reporter gene under the control of LexA binding sites and the indicated B42- and Lex-fusion protein expression vectors were transferred onto galactose-Ura⁻His⁻Trp⁻ plates containing X-gal and incubated for two days. Relative levels of β-galactosidase activity were estimated and are depicted as follows: B, blue (strong interaction); LB, light blue (weak interaction); W, white (no interaction); nt, not tested. At least three separate colonies were tested on the same plate for interaction. To test the effects of ligands, 100 µl of a 10^-6M solution of the appropriate ligand was spread onto plates just before inoculation of cells (9-cis-RA for RXR, T3 for TR, and all-trans-RA for RAR). For B42-PPAR, the plasmid isolated from the screening was used. Both full length and truncated RAR fusions to LexA were tested with identical results for all the B42 fusions except B42-110, which was tested only with the full length fusion.

B42-RIP110 = target: T1, B42-RIP110; assay: as above
Method: as §1

LexA-RXR [1] = target: B1; assay: yeast interaction trap screen; clones showing specific interaction with LexA-RXR; four clones starting at amino acid 91
Method: (§2) From 3×10^6 primary yeast transformants, a number of β-gal expressing colonies were identified in two independent screens carried out in the presence or absence of 9-cis-RA. Since expression of the B42-cDNA fusion proteins was induced by growth on galactose, candidates obtained from each condition were tested for galactose-dependent expression of both β-gal and LEU2, in the presence or absence of 9-cis-RA, using appropriate indicator plates (see below).
(§3) Candidates showing specific interaction with LexA-RXR were sequenced across the B42 fusion junction using an appropriate vector primer, and additional sequence was determined. The deduced amino acid sequences were compared to those in the GenBank and EMBL databases using the GCG (Devereux et al., Nucleic Acids Res. 12:387–395, 1984) and BLAST programs (Altschul et al., J. Mol. Biol. 215:403–410, 1990). […] All of these clones included intact ligand binding domains, as expected from the fact that the major heterodimerization function lies within that domain. For PPAR (Issemann et al., Nature 347:645–650, 1990), three clones started at amino acid 84, just N-terminal to the DNA binding (C) domain, four others started at 91, within the C domain, and one at 170, just past the C domain. For RAR (Leroy et al., EMBO J. 10:59–69), all six clones started at amino acid 132, within the C domain.

LexA-TR = target: T2, LexA-TR; assay: yeast interaction trap, X-gal plate, with T3; W = white (no interaction)
Method: as §1

LexA-RXR [2] = target: B1; assay: yeast interaction trap screen; clones showing specific interaction with LexA-RXR; three clones starting at amino acid 84
Method: as §2, §3

LexA-RXR [3] = target: B1; assay: cell-based or functional assay

B1: binds (B42-RIP13); binds (B42-RIP110).

B2: binds (LexA-RXR [1]).

B3: no binding (LexA-TR).

B4: binds (LexA-RXR [2]).

B5 was tested, and the “β-gal expression (lacZ reporter under LexA binding sites, yeast liquid culture)” value (LexA-RXR [3]) was about 3 fold.
